This assay has as its target HrpG/HrpV complex from Erwinia amylovora, separately produced (Erwinia amylovora). Put plainly: SEC-MALS.

“HrpJ from Erwinia amylovora, separately produced and purified (natural protein)”: the stoichiometry N (HrpG:HrpV:HrpJ) came out at 1.

The values are drawn from article PMC6069116.
